Assay results published in patent WO2015116852A1 (dated 2015).
Numbering of substitutions follows the chain as printed.

B1: VV1G4-7 (antibody, V domains shown)
VH: QVQLVQSGAEVKEPGASVKVSCKASGYTFTSYDIIWVRQATGQGLEWMGWMNPNSGNTGYTQNLQGRVTLTRNTSITTVYMELSSLSSEDTAVYYCARDYSSHYYGLDVWGQGTTVTVSS
VL: DIQLTQSPSFLSTSIGDRVTITCWASQDISNYLAWYQQKPGKAPKLLIFVASTLQSGVPSRFSGSGSGTEFTLTISSLQPEDFATYYCQQFNSYPLTFGGGTKVEIK
notes: also called W1 G4; W1 G4-7
B2: VQ8A9-6 (antibody, V domains shown)
VH: EVQLVESGGNLVQPGRSLRLSCAASGFIFDDYAMHWVRQAPGKGLEWVSGISWNSGSIGYADSVKGRFTISRDNAKNSLYLQMNSLRAEDTALYYCAKDGGSSWLPFVYYYGMDVWGQGTTVTVSS
VL: EIVMTQSPATLSVSPGERATLSCRASQSISSNFAWYQQKPGQAPRLLIYGASTRATGIPARFSGSGSGTDFTLTISSLQSEDFAVYYCQQYSSWPPYTFGQGTKLEIK
B3: VQ8F11-21 (antibody, V domains shown)
VH: EVQLVESGGGLVQPGRSLRLSCAASRFTFDDYAMHWVRQAPGKGLEWVSGISWNSGRIGYADSVKGRFTISRDNAENSLFLQMNGLRAEDTALYYCAKGRDSFDIWGQGTMVTVSS
VL: DIQMTQSPSSVSASVGDRVTITCRASQGISSWLAWYQQKPGKAPKLLIYGASSLESGVPSRFSGSGSGTDFTLTISSLQPEDFASYYCQQANSFPYTFGQGTKLEIK
notes: also called mAb1; sarilumab
B4: VV6A9-5 (antibody, V domains shown)
VH: B3 VH with R26G, M34L, I51V, S55G, E76K, G85S, A88V, S102A, M111L
VL: B3 VL with G50A, E55Q, S85T, Q90H, N92Y
notes: also called W6A9-5
B5: VV6F12-11 (antibody, V domains shown)
VH: B1 VH with V20I, N57D, T58R, N73D, T77S, S87R, S102N
VL: B1 VL with T13A, I15V, K107R
B6: VV9A6-11 (antibody, V domains shown)
VH: QVQLVQSGAEVKKPGASVKVSCKASGYTFTSYGISWVRQAPGQGLEWMGWISAYNDDTNYAQKFQGRVTMTTDTSTSTAYMELRSLRSDDTAVYYCAREAQLVLYYYYGMDVWGQGTTVTVSS
VL: EIVLTQSPATLSLSPGERATLSCRASQSVSSFLAWNQQKPGQAPRLLIYDASNRATGIPARFSGSGSGTDFTLTISSLEPEDFAVYYCQQRSNWPYIFGQGTKLEIK
notes: also called W9A6
B7: VV6C10-3 (antibody, V domains shown)
VH: QVQLVQSGAEVKKPGASVKVSCKASGFNFFHYGITWVRQAPGQGLEWMGWISTYNGDTIYAQKVQGRVTMTTDTATSTAYMELRSLRSDDTAVYYCARSEQQVDYYFYGMDVWGQGTTVTVSS
VL: EIVLTQSPATLSLSPGERATLSCRASQSVSSYLAWYQQKPGQAPRLLIYDASNRATGIPARFSGSGSGTDFTLTISSLEPEDFAFYYCQQRNNRPPFTFGPGTKVDVR
notes: also called W6C10-3
B8: VV3D8-4 (antibody, V domains shown)
VH: B3 VH with R26G, M34L, E76K, G85S, S102A, M111L
VL: B3 VL with G50A, E55Q, S85T
notes: also called W3D8

target: T1, Recombinant human monomeric IL-6R protein (human, UniProt P08887 20-358); assay: BIAcore, antibody captured on anti-mouse Fc, monomeric receptor injected
T1 construct: also called monomeric hIL-6R; human receptor
T1 sequence: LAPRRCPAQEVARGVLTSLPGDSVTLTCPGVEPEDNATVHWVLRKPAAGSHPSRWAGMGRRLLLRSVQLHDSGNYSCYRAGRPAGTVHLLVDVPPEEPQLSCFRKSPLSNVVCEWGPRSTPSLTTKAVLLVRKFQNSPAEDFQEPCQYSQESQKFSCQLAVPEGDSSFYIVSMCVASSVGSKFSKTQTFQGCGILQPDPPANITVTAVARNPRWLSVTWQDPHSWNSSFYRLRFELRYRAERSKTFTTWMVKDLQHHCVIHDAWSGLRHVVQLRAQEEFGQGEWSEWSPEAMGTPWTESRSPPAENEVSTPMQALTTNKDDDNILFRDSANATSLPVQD

| Kd | Binder |
| --- | --- |
| 0.241 nM | B1 |

Target: T2, Recombinant monkey monomeric IL-6R protein (Macaca fascicularis, extracellular domain) (Macaca fascicularis, UniProt P08887 21-330 (human entry))
T2 construct: also called monkey IL-6R; monkey receptor
T2 chain: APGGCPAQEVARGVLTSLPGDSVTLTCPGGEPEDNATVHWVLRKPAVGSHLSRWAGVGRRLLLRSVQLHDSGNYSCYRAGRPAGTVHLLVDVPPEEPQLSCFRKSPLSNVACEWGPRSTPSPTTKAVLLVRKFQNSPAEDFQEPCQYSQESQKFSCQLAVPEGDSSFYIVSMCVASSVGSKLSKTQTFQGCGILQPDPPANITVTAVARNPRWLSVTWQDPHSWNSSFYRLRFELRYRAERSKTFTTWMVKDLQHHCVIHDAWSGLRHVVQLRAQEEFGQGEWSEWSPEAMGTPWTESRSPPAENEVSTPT
Assay: as above

| binding result | Binder |
| --- | --- |
| no binding (tested: 1.25 - 40 nM) | B1 |
| binds | B2 |
| binds | B3 |
| binds | B4 |

target: T3, hIL-6R recombinant protein (human, UniProt P08887 20-358); assay: competition ELISA on plate-coated hIL-6R, competitor control antibody; similar SPR experiment
T3 construct: also called hlL-6R recombinant protein; human IL-6R
T3 sequence: T1 sequence

| binding result | Binder |
| --- | --- |
| binds | B5 |
| binds | B2 |
| binds | B6 |
| binds | B7 |
| binds | B8 |
| binds | B3 |
| binds | B4 |
